Measured values reported in paper PMC10118275.

Key:
[1] = biological target: T1, MBP-TDF1 (Arabidopsis thaliana) (UniProt Q9LSI7); test: EMSA; settings: 10 mM Tris-HCl pH 7.5, 50 mM KCl, 1 mM DTT, 20 uL, room temperature 20 min; 6% polyacrylamide, 0.5x TBE
T1 sequence: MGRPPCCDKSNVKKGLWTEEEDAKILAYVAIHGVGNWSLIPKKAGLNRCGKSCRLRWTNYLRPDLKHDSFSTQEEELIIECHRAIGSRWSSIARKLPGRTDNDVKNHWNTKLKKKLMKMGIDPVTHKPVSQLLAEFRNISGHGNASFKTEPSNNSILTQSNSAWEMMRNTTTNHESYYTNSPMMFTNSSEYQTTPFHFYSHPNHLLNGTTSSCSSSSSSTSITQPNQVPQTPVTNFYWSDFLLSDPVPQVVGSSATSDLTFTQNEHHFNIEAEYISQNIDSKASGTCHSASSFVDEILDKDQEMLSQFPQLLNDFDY

[2] = biological target: T1, MBP-TDF1 (Arabidopsis thaliana); test: competition; settings: 10 mM Tris-HCl pH 7.5, 50 mM KCl, 1 mM DTT, 20 uL, room temperature 20 min; 6% polyacrylamide, 0.5x TBE

TACGTGATTAGGATTTGTAACCACGTAGACGTGTAAAACAAAATTACTTTTTTATCTGTGATTTATAGGAATTTGAGATTTGAATGCAACGTTGTTGTTTCATCTAACAATAAGTGATGAAGAACTTCAAAAGTCTAAAACCATATCATTTATAAAATCA (double strand) [SKS18 promoter 18-2 probe]
binding [1]: binds
binding [2]: binds
